According to the supplement of paper PMC10065799, “High-throughput profiling of sequence recognition by tyrosine kinases and SH2 domains using bacterial peptide display” (eLife, 2023):

System: Fer (mouse)
Experiment: phosphorylation enrichment, bacterial display (enrichment ratio); higher = better substrate or ligand; peptides without Tyr show the background
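Note: 11-residue human phosphosite peptides and single-mutation variants displayed on the E. coli surface, counted by deep sequencing, each peptide's frequency after selection divided by its frequency in the unselected input library; frequency after pTyr selection over input frequency; kinase dosed for 20-30% of maximal phosphorylation in three min.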

Sequence | phosphorylation enrichment
TNYPLYLRSLE [MTM1_Y71_R69P] | 0.555
NDKLRYEVSSP [CDH13_Y66] | 0.443
VNNAVYGIDAM [EIF3J_Y143] | 0.486
DPADRYLTEQF [CDKL5_Y286_C291Y_YF] | 0.513
PLDGEYFTLQI [TP53_Y327] | 1.19
SVVVPYEPPEG [TP53_Y220_V225G] | 0.445
QSSALYEDRFL [ASS1_Y83_YF] | 10.1
LDPMVYMNDKS [PTK2B_Y834] | 0.678
CEHFSYFGMKA [SLC15A2_Y60_R57H_YF] | 0.452
VFLGAYDRFLP [SLC22A5_Y486_YF] | 1.18
SVETPYGSVTF [NDRG2_Y47] | 5.24
ENAGFYFRVSA | 0.724
ENRLDYGSAWA [AR_Y395_P392R] | 0.352
HLITAYRAHGF [PDHA1_Y118] | 0.489
FNNPAYYVLEG [INPPL1_Y986] | 0.485
QRDSSYYWEIE [RAF1_Y340] | 0.536
NYADPYRQLQY [CTNND2_Y503] | 0.464
PSDSGYSFETI [MAP1B_Y1921_YF] | 0.608
TLLPDYEDEEE [ZNF830_Y159_S154T] | 0.788
FRIGPYQPNVP [MATR3_Y784_YF] | 0.446
GGTTLYPGIAD [ACTC1_Y308_M307L] | 0.431
EERNPYFSSAR [MCCC2_Y520_G517R_YF] | 0.36
KPYRVYCDMNT [FGB_Y269] | 0.68
FIAVGYVDDTQ [HLA-A_Y51] | 0.429
FGLQAYTKVKT [ALDH2_Y502_E504K_YF] | 0.476
ELETLYKKAVK [CC2D2A_Y381] | 0.37
MRALTYCDLHK [KCNH2_Y827_V822M] | 0.507
NHQYDYTFHWT [CSNK1A1_Y294_D297H] | 9.26
LAETSYVKVLE [MAGEA1_Y276] | 0.472

System: c-Src
Experiment: as above

Sequence | phosphorylation enrichment
TNYPLYLRSLE [MTM1_Y71_R69P] | 0.499
NDKLRYEVSSP [CDH13_Y66] | 0.438
VNNAVYGIDAM [EIF3J_Y143] | 1
DPADRYLTEQF [CDKL5_Y286_C291Y_YF] | 0.594
PLDGEYFTLQI [TP53_Y327] | 3.81
SVVVPYEPPEG [TP53_Y220_V225G] | 0.446
QSSALYEDRFL [ASS1_Y83_YF] | 2.02
LDPMVYMNDKS [PTK2B_Y834] | 0.669
CEHFSYFGMKA [SLC15A2_Y60_R57H_YF] | 0.673
VFLGAYDRFLP [SLC22A5_Y486_YF] | 4.15
SVETPYGSVTF [NDRG2_Y47] | 4.56
ENAGFYFRVSA | 0.324
ENRLDYGSAWA [AR_Y395_P392R] | 0.435
HLITAYRAHGF [PDHA1_Y118] | 0.344
FNNPAYYVLEG [INPPL1_Y986] | 2.06
QRDSSYYWEIE [RAF1_Y340] | 1.95
NYADPYRQLQY [CTNND2_Y503] | 0.551
PSDSGYSFETI [MAP1B_Y1921_YF] | 0.405
TLLPDYEDEEE [ZNF830_Y159_S154T] | 0.62
FRIGPYQPNVP [MATR3_Y784_YF] | 0.506
GGTTLYPGIAD [ACTC1_Y308_M307L] | 0.363
EERNPYFSSAR [MCCC2_Y520_G517R_YF] | 1.08
KPYRVYCDMNT [FGB_Y269] | 0.562
FIAVGYVDDTQ [HLA-A_Y51] | 0.49
FGLQAYTKVKT [ALDH2_Y502_E504K_YF] | 0.442
ELETLYKKAVK [CC2D2A_Y381] | 0.323
MRALTYCDLHK [KCNH2_Y827_V822M] | 0.37
NHQYDYTFHWT [CSNK1A1_Y294_D297H] | 1.84
LAETSYVKVLE [MAGEA1_Y276] | 0.512

Biological target: Jak2 (UniProt O60674)
Sequence (O60674 whole entry, looked up): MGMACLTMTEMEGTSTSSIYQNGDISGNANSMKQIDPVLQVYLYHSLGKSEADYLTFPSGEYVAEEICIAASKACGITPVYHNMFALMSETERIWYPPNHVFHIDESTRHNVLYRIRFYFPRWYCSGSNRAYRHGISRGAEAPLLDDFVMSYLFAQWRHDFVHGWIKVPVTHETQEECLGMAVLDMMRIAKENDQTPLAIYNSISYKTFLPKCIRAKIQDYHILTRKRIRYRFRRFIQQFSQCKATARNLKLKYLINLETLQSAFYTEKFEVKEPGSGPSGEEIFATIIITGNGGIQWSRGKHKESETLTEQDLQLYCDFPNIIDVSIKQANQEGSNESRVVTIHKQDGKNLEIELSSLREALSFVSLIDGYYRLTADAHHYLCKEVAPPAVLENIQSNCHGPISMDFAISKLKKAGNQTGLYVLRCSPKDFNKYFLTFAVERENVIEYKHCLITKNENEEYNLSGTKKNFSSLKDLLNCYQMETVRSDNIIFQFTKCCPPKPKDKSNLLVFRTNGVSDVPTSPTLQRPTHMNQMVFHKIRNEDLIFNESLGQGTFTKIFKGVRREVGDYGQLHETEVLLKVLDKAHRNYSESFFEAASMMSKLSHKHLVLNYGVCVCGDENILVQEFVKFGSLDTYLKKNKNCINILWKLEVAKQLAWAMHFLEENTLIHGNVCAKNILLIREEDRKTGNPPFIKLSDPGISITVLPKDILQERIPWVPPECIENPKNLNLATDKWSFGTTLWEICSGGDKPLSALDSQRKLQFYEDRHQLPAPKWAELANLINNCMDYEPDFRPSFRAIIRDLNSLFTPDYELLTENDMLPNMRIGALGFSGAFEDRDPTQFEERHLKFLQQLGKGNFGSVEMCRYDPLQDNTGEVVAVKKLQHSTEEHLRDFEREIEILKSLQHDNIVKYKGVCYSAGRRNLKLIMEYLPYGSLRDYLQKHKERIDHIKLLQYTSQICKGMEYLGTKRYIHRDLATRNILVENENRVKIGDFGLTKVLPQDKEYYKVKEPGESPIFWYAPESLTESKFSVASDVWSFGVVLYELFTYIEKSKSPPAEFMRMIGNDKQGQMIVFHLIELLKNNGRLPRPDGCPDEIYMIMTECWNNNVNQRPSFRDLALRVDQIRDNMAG
Experiment: as above

Sequence | phosphorylation enrichment
TNYPLYLRSLE [MTM1_Y71_R69P] | 1.28
NDKLRYEVSSP [CDH13_Y66] | 0.884
VNNAVYGIDAM [EIF3J_Y143] | 0.764
DPADRYLTEQF [CDKL5_Y286_C291Y_YF] | 1.11
PLDGEYFTLQI [TP53_Y327] | 4.17
SVVVPYEPPEG [TP53_Y220_V225G] | 1.01
QSSALYEDRFL [ASS1_Y83_YF] | 1.23
LDPMVYMNDKS [PTK2B_Y834] | 1.25
CEHFSYFGMKA [SLC15A2_Y60_R57H_YF] | 3.82
VFLGAYDRFLP [SLC22A5_Y486_YF] | 0.976
SVETPYGSVTF [NDRG2_Y47] | 0.606
ENAGFYFRVSA | 1.22
ENRLDYGSAWA [AR_Y395_P392R] | 0.824
HLITAYRAHGF [PDHA1_Y118] | 0.408
FNNPAYYVLEG [INPPL1_Y986] | 4.76
QRDSSYYWEIE [RAF1_Y340] | 1.13
NYADPYRQLQY [CTNND2_Y503] | 0.672
PSDSGYSFETI [MAP1B_Y1921_YF] | 1.25
TLLPDYEDEEE [ZNF830_Y159_S154T] | 1.1
FRIGPYQPNVP [MATR3_Y784_YF] | 0.78
GGTTLYPGIAD [ACTC1_Y308_M307L] | 0.553
EERNPYFSSAR [MCCC2_Y520_G517R_YF] | 0.779
KPYRVYCDMNT [FGB_Y269] | 1.1
FIAVGYVDDTQ [HLA-A_Y51] | 0.782
FGLQAYTKVKT [ALDH2_Y502_E504K_YF] | 1.33
ELETLYKKAVK [CC2D2A_Y381] | 0.684
MRALTYCDLHK [KCNH2_Y827_V822M] | 0.771
NHQYDYTFHWT [CSNK1A1_Y294_D297H] | 0.892
LAETSYVKVLE [MAGEA1_Y276] | 0.888

Biological target: Fes (UniProt P07332)
Sequence (P07332 whole entry, looked up): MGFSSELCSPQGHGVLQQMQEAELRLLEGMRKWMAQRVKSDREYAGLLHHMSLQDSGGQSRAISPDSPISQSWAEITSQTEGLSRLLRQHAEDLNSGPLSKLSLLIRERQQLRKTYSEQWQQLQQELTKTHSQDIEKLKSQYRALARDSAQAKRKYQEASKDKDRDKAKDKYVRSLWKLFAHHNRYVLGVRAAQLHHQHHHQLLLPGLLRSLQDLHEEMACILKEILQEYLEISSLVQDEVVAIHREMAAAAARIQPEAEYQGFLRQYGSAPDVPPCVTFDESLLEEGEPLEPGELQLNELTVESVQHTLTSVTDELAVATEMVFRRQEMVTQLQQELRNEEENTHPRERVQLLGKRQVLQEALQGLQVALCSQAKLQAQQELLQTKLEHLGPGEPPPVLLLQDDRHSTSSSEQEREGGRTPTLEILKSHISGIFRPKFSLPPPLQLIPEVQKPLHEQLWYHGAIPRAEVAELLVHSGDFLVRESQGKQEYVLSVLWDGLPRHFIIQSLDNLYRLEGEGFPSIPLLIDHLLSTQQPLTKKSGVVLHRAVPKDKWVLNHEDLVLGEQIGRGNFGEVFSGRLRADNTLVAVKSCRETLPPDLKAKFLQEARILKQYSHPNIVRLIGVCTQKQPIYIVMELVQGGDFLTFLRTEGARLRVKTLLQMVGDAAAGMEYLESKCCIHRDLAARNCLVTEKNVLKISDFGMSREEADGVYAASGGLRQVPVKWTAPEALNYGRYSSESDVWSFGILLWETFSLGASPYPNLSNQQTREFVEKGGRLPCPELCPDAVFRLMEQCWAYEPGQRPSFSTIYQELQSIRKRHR
Experiment: as above

Sequence | phosphorylation enrichment
TNYPLYLRSLE [MTM1_Y71_R69P] | 1.36
NDKLRYEVSSP [CDH13_Y66] | 1.01
VNNAVYGIDAM [EIF3J_Y143] | 0.88
DPADRYLTEQF [CDKL5_Y286_C291Y_YF] | 1.35
PLDGEYFTLQI [TP53_Y327] | 1.47
SVVVPYEPPEG [TP53_Y220_V225G] | 0.929
QSSALYEDRFL [ASS1_Y83_YF] | 1.53
LDPMVYMNDKS [PTK2B_Y834] | 1.28
CEHFSYFGMKA [SLC15A2_Y60_R57H_YF] | 0.845
VFLGAYDRFLP [SLC22A5_Y486_YF] | 1.02
SVETPYGSVTF [NDRG2_Y47] | 0.928
ENAGFYFRVSA | 1.58
ENRLDYGSAWA [AR_Y395_P392R] | 1.25
HLITAYRAHGF [PDHA1_Y118] | 0.74
FNNPAYYVLEG [INPPL1_Y986] | 0.958
QRDSSYYWEIE [RAF1_Y340] | 1.09
NYADPYRQLQY [CTNND2_Y503] | 0.747
PSDSGYSFETI [MAP1B_Y1921_YF] | 1.25
TLLPDYEDEEE [ZNF830_Y159_S154T] | 1.28
FRIGPYQPNVP [MATR3_Y784_YF] | 0.966
GGTTLYPGIAD [ACTC1_Y308_M307L] | 0.765
EERNPYFSSAR [MCCC2_Y520_G517R_YF] | 0.752
KPYRVYCDMNT [FGB_Y269] | 1.13
FIAVGYVDDTQ [HLA-A_Y51] | 0.949
FGLQAYTKVKT [ALDH2_Y502_E504K_YF] | 1.23
ELETLYKKAVK [CC2D2A_Y381] | 0.896
MRALTYCDLHK [KCNH2_Y827_V822M] | 1.09
NHQYDYTFHWT [CSNK1A1_Y294_D297H] | 0.938
LAETSYVKVLE [MAGEA1_Y276] | 1.03
